Experimental data published in paper PMC8914513.
Blank lines part the entries; values can stand above or below the substance they belong to.

Key:
[1] = biological target: CK2alpha-phosphorylated thymidylate synthase fraction (pTS), as used in MST (human) (UniProt P04818); assay: MST; two proteins in solution, Premium capillaries: labeled DHFR with SHMT 157 uM-4.79 nM; labeled SHMT with TS 62.0 uM-1.9 nM; labeled pTS with SHMT 157 uM-4.79 nM; Kd model fit
[2] = biological target: serine hydroxymethyltransferase, cytosolic (SHMT1), His-tagged, immobilised in QCM-D (UniProt P34896); assay: QCM-D (quartz crystal microbalance with dissipation monitoring); two proteins: 5 uM His-tagged SHMT immobilised on His-tag capturing sensor QSX340; tagless ligand introduced (0.1-1.0 uM or 0.5-7.0 uM for TS, pTS or DHFR); 20 mM Tris-HCl pH 7.6, 100 mM (salt not given), 10 mM MgCl2, 0.05% Tween 20, 25 C, 200 ul/min; Langmuir isotherm fit
DHFR (Homo sapiens) [3] = biological target: DHFR (Homo sapiens) (UniProt P00374); assay: MST; conditions: cited from earlier work
DHFR (Homo sapiens) [4] = biological target: DHFR (Homo sapiens) (UniProt P00374); assay: QCM-D; conditions: cited from earlier work

thymidylate synthase, sequence (P04818 2-313): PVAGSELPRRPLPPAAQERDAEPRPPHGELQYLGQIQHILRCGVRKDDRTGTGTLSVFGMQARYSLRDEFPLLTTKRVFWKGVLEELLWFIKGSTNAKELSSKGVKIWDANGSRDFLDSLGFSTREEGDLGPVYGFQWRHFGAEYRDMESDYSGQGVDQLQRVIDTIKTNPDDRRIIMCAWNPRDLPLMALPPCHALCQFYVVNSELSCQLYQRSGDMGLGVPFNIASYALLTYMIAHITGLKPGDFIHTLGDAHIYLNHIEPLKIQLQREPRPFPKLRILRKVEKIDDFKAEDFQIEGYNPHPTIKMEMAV
DHFR (Homo sapiens), sequence (P00374 whole entry): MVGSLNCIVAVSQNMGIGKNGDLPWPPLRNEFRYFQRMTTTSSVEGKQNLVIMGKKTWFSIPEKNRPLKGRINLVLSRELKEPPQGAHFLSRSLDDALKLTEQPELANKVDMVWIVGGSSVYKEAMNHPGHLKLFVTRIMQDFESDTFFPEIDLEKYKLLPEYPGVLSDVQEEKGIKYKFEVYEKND
CK2alpha-phosphorylated thymidylate synthase fraction (pTS), as used in MST (human), sequence (P04818 whole entry): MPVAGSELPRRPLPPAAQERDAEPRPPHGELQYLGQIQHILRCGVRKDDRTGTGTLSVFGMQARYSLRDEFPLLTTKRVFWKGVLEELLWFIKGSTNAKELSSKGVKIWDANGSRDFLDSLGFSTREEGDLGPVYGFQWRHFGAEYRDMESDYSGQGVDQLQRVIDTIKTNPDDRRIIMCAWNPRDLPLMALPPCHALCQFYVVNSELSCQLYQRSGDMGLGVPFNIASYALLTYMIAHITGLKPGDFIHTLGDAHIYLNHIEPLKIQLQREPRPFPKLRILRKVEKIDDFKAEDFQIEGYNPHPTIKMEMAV
serine hydroxymethyltransferase, cytosolic (SHMT1), His-tagged, immobilised in QCM-D, sequence (P34896 whole entry): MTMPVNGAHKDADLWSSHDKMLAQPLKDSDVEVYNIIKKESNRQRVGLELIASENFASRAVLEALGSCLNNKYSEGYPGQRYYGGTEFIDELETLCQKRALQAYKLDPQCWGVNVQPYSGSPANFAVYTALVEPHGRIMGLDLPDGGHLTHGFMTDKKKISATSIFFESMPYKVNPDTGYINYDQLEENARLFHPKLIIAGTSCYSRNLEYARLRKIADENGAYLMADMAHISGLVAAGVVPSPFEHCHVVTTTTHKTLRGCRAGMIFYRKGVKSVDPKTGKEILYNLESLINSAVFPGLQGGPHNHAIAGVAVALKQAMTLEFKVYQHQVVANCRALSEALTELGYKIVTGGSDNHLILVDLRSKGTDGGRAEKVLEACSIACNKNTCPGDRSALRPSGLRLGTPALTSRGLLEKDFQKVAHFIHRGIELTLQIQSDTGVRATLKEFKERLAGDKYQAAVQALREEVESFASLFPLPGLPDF

- Kd [1]: 0.219 µM
Substance: serine hydroxymethyltransferase, cytosolic (SHMT1), as used in MST (from UniProt P34896 1-483) (enzyme)

- Kd [2]: 5.35 µM
Substance: CK2alpha-phosphorylated thymidylate synthase fraction (pTS), tagless ligand in QCM-D (from UniProt P04818 1-313) (enzyme)

Substance: thymidylate synthase (from UniProt P04818)
- Kd (DHFR (Homo sapiens) [3]): 2.8 µM
- Kd (DHFR (Homo sapiens) [4]): 7.6 µM
